Source: the supplement of paper PMC10899765

Tests used:
Details in all cases: 20 nM; 72 h
MCF10A [1] = assay: percent viability (nuclei count relative to siNT); higher = more viable cells
Description: (§1)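 After 72 h, cells were fixed and stained with Hoechst and anti-fibrillarin, and nucleoli per nucleus were counted with CellProfiler. Values are plate-adjusted percent effect for the one-nucleolus and 5+ nucleoli phenotypes, normalised to siNT (0%) and to the positive controls siNOL11 or siKIF11 (100%), as the mean of biological triplicates. Percent viability is the nuclei count relative to siNT.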

MCF10A [2] = assay: 5+ nucleoli phenotype percent effect (relative to siNT 0% and siKIF11 100%); higher = more cells with five or more nucleoli
Description: as §1

MCF10A [3] = assay: one-nucleolus phenotype percent effect (relative to siNT 0% and siNOL11 100%); higher = more cells with one nucleolus (ribosome biogenesis inhibition)
Description: as §1

Row | Sequence | percent viability (MCF10A [1]) | 5+ nucleoli phenotype percent effect (MCF10A [2]) | one-nucleolus phenotype percent effect (MCF10A [3])
1 | GGGAAGAGCUGUACGGCCUUC [hsa-miR-6077] | 37.4% | -35.5% | 32.5%
2 | CCAAAUCUUGAUCAGAAGCCU [hsa-miR-4762-5p] | 106% | 26.6% | -8.43%
3 | CACAGGCUUAGAAAAGACAGU [hsa-miR-4438] | 11.8% | 25.6% | -2.67%
4 | CUGCAAUGUAAGCACUUCUUAC [hsa-miR-106a-3p] | 72.6% | -24.5% | 18.7%
5 | UAAUACUGCCGGGUAAUGAUGGA [hsa-miR-200c-3p] | 104% | 62.3% | -17%
6 | AUGGGUGAUGGGUGUGGUGU [hsa-miR-4701-3p] | 13.3% | -25% | 47.1%
7 | UGAGUACCGCCAUGUCUGUUGGG [hsa-miR-1911-5p] | 108% | 17.2% | -20.9%
8 | UUUGGCAAUGGUAGAACUCACACU [hsa-miR-182-5p] | 22.8% | 13.1% | 25%
9 | UAGGUGGCGCCGGAGGAGUCAUU [hsa-miR-6815-5p] | 13.2% | -6.84% | 20.3%
10 | UAACACUGUCUGGUAAAGAUGG [hsa-miR-141-3p] | 83% | 44.6% | -19.9%
11 | GUUCCACACUGACACUGCAGAAGU [hsa-miR-3692-3p] | 49.6% | 6.05% | -3.86%
12 | CAGGCAGGUGUAGGGUGGAGC [hsa-miR-6893-5p] | 31.2% | -6.16% | -3.82%
13 | CUAGUGCUCUCCGUUACAAGUA [hsa-miR-4473] | 37.8% | 18% | -11.7%
14 | GAGGGUUGGGUGGAGGCUCUCC [hsa-miR-296-3p] | 57.1% | 9.3% | 20.8%
15 | AAAGGAUUCUGCUGUCGGUCCCACU [hsa-miR-541-5p] | 51.1% | -28.2% | 12.6%
16 | UGUGCAGCAGGCCAACCGAGA [hsa-miR-3944-5p] | 69% | 4.63% | -7.88%
17 | UUUCUUCUUAGACAUGGCAGCU [hsa-miR-4659b-3p] | 31.6% | -29.4% | -5.32%
18 | UUCACAAGGAGGUGUCAUUUAU [hsa-miR-513b] | 62.4% | -29.7% | 14.2%
19 | UGAGCCCUGUCCUCCCGCAG [hsa-miR-1233-3p] | 63.8% | 7.25% | -6.71%
20 | AAAUAUAUAUAUAUAUGUACGUAU [hsa-miR-1277-5p] | 47.1% | 64.2% | -29.6%
21 | UGAGGGGUUUGGAAUGGGAUGG [hsa-miR-5194] | 14.8% | 21% | 13.7%
22 | UUGAGAAUGAUGAAUCAUUAGG [hsa-miR-580] | 91.4% | 25.6% | -18.3%
23 | CAGGAGUGGGGGGUGGGACGU [hsa-miR-4433b-3p] | 65.1% | 3.45% | -5.4%
24 | ACUGGCUAGGGAAAAUGAUUGGAU [hsa-miR-664a-5p] | 47.9% | 8.84% | 16.3%
25 | CUCCAGAGGGAUGCACUUUCU [hsa-miR-525-5p] | 36.5% | -22.1% | 20.6%
26 | GUCCAGUUUUCCCAGGAAUCCCU [hsa-miR-145-5p] | 70.4% | -1.55% | -4.84%
27 | CGUGUAUUUGACAAGCUGAGUU [hsa-miR-223-5p] | 20% | -35% | 31.4%
28 | GAGGAAACUGAAGCUGAGAGGG [hsa-miR-4496] | 88.3% | 40.4% | -13.7%
29 | AAAAGUAAUCACUGUUUUUGCC [hsa-miR-548y] | 73.4% | 42.1% | -21.4%
